What was measured:
[1] = molecular target: c-Src SH2; assay: SH2 binding enrichment of the phosphorylated peptide, bacterial display (enrichment ratio); higher = better substrate or ligand; peptides without Tyr show the background
[2] = molecular target: Grb2 SH2 (UniProt P62993); assay: as above
[3] = molecular target: SHP2-C SH2; assay: as above
[4] = molecular target: Fyn (UniProt P06241); assay: phosphorylation enrichment, bacterial display (enrichment ratio); higher = better substrate or ligand; peptides without Tyr show the background
[5] = molecular target: MERTK (UniProt Q12866); assay: as above
Sequence of MERTK (Q12866 whole entry, looked up): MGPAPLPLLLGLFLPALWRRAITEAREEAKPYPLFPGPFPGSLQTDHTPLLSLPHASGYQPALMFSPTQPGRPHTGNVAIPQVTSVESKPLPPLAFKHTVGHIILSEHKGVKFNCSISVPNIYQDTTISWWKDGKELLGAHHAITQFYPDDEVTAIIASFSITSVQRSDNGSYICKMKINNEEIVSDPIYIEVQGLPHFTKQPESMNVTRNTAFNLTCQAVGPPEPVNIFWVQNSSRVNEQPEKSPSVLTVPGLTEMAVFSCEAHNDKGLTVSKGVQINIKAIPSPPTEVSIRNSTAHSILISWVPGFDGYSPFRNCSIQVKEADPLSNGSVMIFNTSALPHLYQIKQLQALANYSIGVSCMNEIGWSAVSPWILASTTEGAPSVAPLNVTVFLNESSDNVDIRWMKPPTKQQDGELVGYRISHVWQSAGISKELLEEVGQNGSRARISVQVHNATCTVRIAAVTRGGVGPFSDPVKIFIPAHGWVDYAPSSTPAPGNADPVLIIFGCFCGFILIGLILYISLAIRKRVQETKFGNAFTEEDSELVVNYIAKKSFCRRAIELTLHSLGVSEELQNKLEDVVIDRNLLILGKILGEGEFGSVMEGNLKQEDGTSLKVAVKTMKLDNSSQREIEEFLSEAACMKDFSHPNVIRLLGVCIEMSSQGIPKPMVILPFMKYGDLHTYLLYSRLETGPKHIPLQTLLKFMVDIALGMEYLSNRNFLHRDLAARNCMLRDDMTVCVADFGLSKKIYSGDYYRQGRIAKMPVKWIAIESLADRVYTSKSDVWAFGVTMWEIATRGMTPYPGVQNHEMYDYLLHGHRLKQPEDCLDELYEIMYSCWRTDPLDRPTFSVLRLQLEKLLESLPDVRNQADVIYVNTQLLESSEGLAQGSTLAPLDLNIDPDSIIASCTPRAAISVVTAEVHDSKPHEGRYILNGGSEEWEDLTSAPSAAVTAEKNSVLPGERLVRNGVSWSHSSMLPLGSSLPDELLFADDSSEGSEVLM

[6] = molecular target: Jak2 (UniProt O60674); assay: as above
[7] = molecular target: FGFR3 (UniProt P22607); assay: as above
[8] = molecular target: Fes (UniProt P07332); assay: as above
Sequence of Fes (P07332 whole entry, looked up): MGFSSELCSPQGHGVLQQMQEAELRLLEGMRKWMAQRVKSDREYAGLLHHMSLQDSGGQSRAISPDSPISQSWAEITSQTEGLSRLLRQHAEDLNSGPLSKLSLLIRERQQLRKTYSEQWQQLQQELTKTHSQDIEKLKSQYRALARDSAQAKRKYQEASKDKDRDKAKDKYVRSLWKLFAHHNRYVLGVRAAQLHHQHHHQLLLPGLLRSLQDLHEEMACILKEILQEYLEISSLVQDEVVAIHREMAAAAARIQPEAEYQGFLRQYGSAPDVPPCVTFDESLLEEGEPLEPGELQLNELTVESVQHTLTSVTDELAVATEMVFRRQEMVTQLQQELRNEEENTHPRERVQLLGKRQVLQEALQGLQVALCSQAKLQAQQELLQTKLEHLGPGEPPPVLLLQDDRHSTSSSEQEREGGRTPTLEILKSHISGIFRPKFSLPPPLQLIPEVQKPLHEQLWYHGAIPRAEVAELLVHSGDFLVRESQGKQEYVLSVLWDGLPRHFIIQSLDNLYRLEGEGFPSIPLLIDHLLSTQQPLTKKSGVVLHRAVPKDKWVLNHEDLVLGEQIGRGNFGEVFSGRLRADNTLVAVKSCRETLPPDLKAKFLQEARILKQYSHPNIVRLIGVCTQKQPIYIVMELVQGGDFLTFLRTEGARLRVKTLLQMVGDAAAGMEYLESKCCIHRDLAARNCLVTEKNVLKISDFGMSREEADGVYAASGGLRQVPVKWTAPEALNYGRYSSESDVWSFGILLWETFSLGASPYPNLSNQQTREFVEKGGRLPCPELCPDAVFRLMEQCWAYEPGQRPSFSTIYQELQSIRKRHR

[9] = test system: c-Src; assay: as above
[10] = molecular target: Hck (UniProt P08631); assay: as above
[11] = molecular target: EPHB2 (UniProt P29323); assay: as above
Sequence of EPHB2 (P29323 whole entry, looked up): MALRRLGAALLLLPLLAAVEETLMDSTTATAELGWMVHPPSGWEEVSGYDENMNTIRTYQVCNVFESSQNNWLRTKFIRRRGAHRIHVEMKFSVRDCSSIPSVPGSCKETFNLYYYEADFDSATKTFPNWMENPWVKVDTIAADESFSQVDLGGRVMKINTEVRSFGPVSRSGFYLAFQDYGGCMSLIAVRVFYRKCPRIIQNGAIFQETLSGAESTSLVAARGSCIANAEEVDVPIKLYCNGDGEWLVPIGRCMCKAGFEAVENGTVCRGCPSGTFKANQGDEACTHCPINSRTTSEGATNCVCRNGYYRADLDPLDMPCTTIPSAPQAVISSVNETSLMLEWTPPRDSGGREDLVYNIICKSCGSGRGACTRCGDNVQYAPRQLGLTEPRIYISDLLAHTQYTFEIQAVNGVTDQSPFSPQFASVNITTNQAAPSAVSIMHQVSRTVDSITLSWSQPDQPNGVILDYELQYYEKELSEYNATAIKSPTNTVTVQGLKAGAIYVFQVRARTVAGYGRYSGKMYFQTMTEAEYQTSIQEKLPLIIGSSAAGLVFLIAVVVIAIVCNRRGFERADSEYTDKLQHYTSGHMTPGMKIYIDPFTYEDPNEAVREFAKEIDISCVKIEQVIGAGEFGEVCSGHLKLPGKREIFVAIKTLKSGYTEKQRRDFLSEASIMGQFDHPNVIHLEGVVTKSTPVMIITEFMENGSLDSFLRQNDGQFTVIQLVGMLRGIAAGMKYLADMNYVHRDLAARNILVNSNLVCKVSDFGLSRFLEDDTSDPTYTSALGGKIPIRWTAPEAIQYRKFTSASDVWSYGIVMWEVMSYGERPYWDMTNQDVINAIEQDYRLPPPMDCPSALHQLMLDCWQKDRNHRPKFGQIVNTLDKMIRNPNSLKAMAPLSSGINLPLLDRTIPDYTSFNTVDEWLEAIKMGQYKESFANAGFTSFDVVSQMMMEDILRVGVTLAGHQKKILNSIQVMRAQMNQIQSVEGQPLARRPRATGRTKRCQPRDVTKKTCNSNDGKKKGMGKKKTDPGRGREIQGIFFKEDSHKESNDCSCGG

[12] = molecular target: FGFR1 (UniProt P11362); assay: as above
Sequence of FGFR1 (P11362 whole entry, looked up): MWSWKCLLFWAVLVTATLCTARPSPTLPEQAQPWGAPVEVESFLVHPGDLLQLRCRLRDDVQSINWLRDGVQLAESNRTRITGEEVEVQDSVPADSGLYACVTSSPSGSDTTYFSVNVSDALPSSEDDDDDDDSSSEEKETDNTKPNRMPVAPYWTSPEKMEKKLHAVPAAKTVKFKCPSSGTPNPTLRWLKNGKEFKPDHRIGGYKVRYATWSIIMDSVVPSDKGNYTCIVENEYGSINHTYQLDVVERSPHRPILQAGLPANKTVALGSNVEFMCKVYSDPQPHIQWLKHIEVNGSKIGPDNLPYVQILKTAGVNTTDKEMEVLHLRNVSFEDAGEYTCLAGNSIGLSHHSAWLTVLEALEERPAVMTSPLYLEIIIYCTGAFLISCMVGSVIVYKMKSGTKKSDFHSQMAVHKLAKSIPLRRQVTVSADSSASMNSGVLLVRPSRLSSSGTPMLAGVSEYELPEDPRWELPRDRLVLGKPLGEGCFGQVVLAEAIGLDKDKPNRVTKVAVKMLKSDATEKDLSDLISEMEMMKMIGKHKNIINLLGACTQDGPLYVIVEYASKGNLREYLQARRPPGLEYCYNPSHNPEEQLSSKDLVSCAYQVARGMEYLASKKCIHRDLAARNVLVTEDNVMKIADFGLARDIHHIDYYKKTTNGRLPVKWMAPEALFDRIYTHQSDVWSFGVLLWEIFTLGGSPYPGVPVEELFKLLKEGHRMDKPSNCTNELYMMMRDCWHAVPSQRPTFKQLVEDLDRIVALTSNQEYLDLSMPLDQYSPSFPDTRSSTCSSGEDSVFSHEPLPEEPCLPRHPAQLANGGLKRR

[13] = test system: AncSZ; assay: as above
[14] = test system: c-Abl (mouse); assay: as above
[15] = molecular target: EPHB1 (UniProt P54762); assay: as above
Sequence of EPHB1 (P54762 whole entry, looked up): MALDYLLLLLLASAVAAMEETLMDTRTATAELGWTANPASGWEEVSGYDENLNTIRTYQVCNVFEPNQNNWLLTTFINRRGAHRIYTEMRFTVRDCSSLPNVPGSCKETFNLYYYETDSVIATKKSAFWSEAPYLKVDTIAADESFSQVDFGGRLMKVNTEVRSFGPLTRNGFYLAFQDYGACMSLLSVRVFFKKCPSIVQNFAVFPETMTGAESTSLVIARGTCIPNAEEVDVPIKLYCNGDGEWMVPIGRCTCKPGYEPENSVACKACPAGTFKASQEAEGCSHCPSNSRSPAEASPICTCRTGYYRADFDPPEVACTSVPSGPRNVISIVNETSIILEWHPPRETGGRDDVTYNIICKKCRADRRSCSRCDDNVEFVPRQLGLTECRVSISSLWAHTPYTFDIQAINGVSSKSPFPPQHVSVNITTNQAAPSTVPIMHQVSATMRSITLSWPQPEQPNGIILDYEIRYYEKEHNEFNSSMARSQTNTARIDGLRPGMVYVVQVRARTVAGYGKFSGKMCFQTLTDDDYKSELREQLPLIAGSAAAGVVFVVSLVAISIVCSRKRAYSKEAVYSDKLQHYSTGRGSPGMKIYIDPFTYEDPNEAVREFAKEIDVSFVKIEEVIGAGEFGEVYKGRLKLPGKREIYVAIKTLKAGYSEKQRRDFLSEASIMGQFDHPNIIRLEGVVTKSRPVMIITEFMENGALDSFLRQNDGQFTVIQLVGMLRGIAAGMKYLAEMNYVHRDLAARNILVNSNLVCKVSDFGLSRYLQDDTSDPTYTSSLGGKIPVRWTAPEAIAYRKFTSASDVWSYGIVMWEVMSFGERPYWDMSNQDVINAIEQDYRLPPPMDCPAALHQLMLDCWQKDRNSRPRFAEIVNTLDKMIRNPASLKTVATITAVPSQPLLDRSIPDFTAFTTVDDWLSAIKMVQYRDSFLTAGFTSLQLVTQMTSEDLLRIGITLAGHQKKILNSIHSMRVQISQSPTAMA

[16] = test system: Fer (mouse); assay: as above
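For SH2 binding enrichment of the phosphorylated peptide, bacterial display in this document: peptide library displayed on the E. coli surface as eCPX fusions, selected cells deep-sequenced, score is each peptide's frequency after selection divided by its frequency in the input.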
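For phosphorylation enrichment, bacterial display in this document: 11-residue human phosphosite peptides and single-mutation variants displayed on the E. coli surface, counted by deep sequencing, each peptide's frequency after selection divided by its frequency in the unselected input library; frequency after pTyr selection over input frequency; kinase dosed for 20-30% of maximal phosphorylation in three min.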

Row | Sequence | SH2 binding enrichment [1] | SH2 binding enrichment [2] | SH2 binding enrichment [3] | phosphorylation enrichment [4] | phosphorylation enrichment [5] | phosphorylation enrichment [6] | phosphorylation enrichment [7] | phosphorylation enrichment [8] | phosphorylation enrichment [9] | phosphorylation enrichment [10] | phosphorylation enrichment [11] | phosphorylation enrichment [12] | phosphorylation enrichment [13] | phosphorylation enrichment [14] | phosphorylation enrichment [15] | phosphorylation enrichment [16]
1 | IKETHYMVDKC | 0.525 | 0.684 | 0.68 | 0.46 | 0.437 | 0.804 | 0.543 | 0.944 | 0.403 | 0.448 | 0.531 | 0.489 | 0.8 | 0.652 | 0.447 | 0.507
2 | EHEALYLEADL [CENPF_Y1920] | 0.57 | 0.845 | 0.56 | 0.653 | 0.77 | 1.12 | 1.8 | 1.34 | 0.986 | 0.715 | 0.84 | 1.73 | 1.66 | 0.938 | 0.57 | 1.2
3 | LVTRSYLLGNS [LMNA_Y646] | 0.444 | 0.836 | 0.633 | 0.823 | 0.794 | 1.27 | 0.939 | 1.52 | 0.854 | 0.708 | 0.68 | 0.841 | 1.37 | 1.14 | 0.931 | 0.85
4 | RPFSPYIIRGM [LRP5_Y1531_R1529S_YF] | 0.479 | 0.834 | 0.81 | 0.98 | 0.494 | 0.92 | 0.71 | 0.991 | 0.886 | 0.719 | 0.535 | 0.785 | 1.29 | 0.595 | 0.752 | 0.494
5 | CEAIEYLESKQ [BTK_Y511_M509I] | 0.64 | 0.774 | 0.738 | 0.485 | 0.461 | 1.33 | 0.835 | 1.39 | 0.549 | 0.552 | 0.553 | 0.574 | 1.29 | 0.816 | 0.631 | 0.521
6 | SLDLSYFPTSS [EMD_Y181_YF] | 0.414 | 0.8 | 1.1 | 0.496 | 0.56 | 2.93 | 0.635 | 0.793 | 0.502 | 0.432 | 0.513 | 0.59 | 0.879 | 0.632 | 0.426 | 0.353
7 | VGTKRYMAPKV [ACVRL1_Y375_E379K] | 0.632 | 1.19 | 1.44 | 0.301 | 0.424 | 0.482 | 0.372 | 0.456 | 0.304 | 0.327 | 0.282 | 0.391 | 0.377 | 0.625 | 0.274 | 0.443
8 | VSYGEYRYRSV [CFTR_Y515_D513G] | 0.451 | 0.529 | 0.369 | 5.66 | 0.363 | 0.612 | 0.469 | 0.824 | 3.22 | 2.04 | 0.416 | 0.505 | 0.688 | 0.605 | 0.452 | 0.442
9 | MASTSYDFCRV [BST2_Y6_YF] | 1.66 | 0.99 | 0.727 | 0.486 | 0.709 | 0.796 | 0.829 | 0.919 | 0.525 | 0.473 | 0.613 | 0.572 | 0.944 | 0.622 | 0.576 | 2.25
10 | FMCKVYSDPQP [FGFR1_Y280] | 0.439 | 0.733 | 0.511 | 0.516 | 0.425 | 1.3 | 0.863 | 1.64 | 0.664 | 0.578 | 0.701 | 0.543 | 1.41 | 0.99 | 0.752 | 0.591
11 | RSSNTYTLTDV [ALCAM_Y298] | 1.19 | 0.82 | 0.689 | 1.6 | 0.766 | 0.805 | 0.705 | 0.921 | 1.58 | 0.951 | 0.561 | 0.519 | 0.766 | 0.669 | 0.544 | 1.04
12 | QSSALYEDHFL [ASS1_Y83_R86H_YF] | 0.48 | 0.809 | 1.13 | 1.36 | 2.51 | 0.898 | 0.46 | 1.47 | 2.12 | 1.57 | 4.17 | 0.654 | 1.07 | 1.04 | 5.92 | 17.9
13 | GREEFYVHYVG [KAT8_Y90] | 0.644 | 0.81 | 2.83 | 0.518 | 0.422 | 1.02 | 1.02 | 1.16 | 0.486 | 0.563 | 0.67 | 0.711 | 1.16 | 0.788 | 0.583 | 0.428
14 | SARFRYLLAEK [LDHB_Y173_M175L] | 0.437 | 0.766 | 0.593 | 0.514 | 0.498 | 0.641 | 0.55 | 0.697 | 0.515 | 0.508 | 0.477 | 0.439 | 0.724 | 0.783 | 0.35 | 0.452

Second part, led by results:

Row | SH2 binding enrichment [1] | SH2 binding enrichment [2] | SH2 binding enrichment [3] | Sequence | phosphorylation enrichment [4] | phosphorylation enrichment [5] | phosphorylation enrichment [6] | phosphorylation enrichment [7] | phosphorylation enrichment [8] | phosphorylation enrichment [9] | phosphorylation enrichment [10] | phosphorylation enrichment [11] | phosphorylation enrichment [12] | phosphorylation enrichment [13] | phosphorylation enrichment [14] | phosphorylation enrichment [15] | phosphorylation enrichment [16]
15 | 1.19 | 1.05 | 0.899 | EQKRYYNAMKK [SCN5A_Y1495_K1493R] | 0.457 | 0.547 | 0.605 | 0.465 | 0.576 | 0.371 | 0.312 | 0.317 | 0.348 | 0.586 | 0.447 | 0.356 | 0.399
16 | 2.26 | 1.53 | 1.64 | CTTLHYNFMCN [TP53_Y234_I232L_YF] | 0.391 | 0.424 | 0.758 | 0.534 | 0.78 | 0.538 | 0.395 | 0.406 | 0.567 | 0.718 | 0.545 | 0.361 | 0.708
17 | 0.551 | 0.603 | 0.734 | LIDTVYSSSSA [OR4C12_Y71] | 3.74 | 0.641 | 1.19 | 1.32 | 1.57 | 3.25 | 3.42 | 0.782 | 0.979 | 1.06 | 1.03 | 0.757 | 0.96
18 | 0.573 | 0.934 | 0.734 | KLNNEHLELNY [MME_Y497_Y497H] | 0.471 | 0.395 | 0.619 | 0.517 | 0.768 | 0.417 | 0.421 | 0.452 | 0.437 | 0.775 | 0.58 | 0.402 | 0.445
19 | 0.436 | 0.812 | 0.544 | EDASEYFENFI [PARP4_Y214_F215Y_YF] | 0.613 | 0.58 | 1.39 | 1.58 | 1.47 | 0.618 | 0.624 | 0.806 | 1.48 | 2.37 | 1.07 | 0.798 | 0.598
20 | 0.607 | 1.35 | 0.901 | FRTPGYREVVI [TNS2_Y673_A670T_YF] | 0.411 | 0.546 | 0.615 | 0.6 | 0.814 | 0.504 | 0.43 | 0.446 | 0.45 | 0.703 | 0.597 | 0.418 | 0.473
21 | 1 | 0.902 | 0.676 | HHTNEYEYDEL [TGM1_Y134_D132N] | 0.952 | 0.594 | 1.18 | 0.813 | 1.17 | 0.901 | 0.489 | 0.585 | 0.69 | 1.32 | 1.58 | 0.497 | 0.736
22 | 0.978 | 0.877 | 0.85 | ERFSYYGMKAV [SLC15A2_Y61] | 0.8 | 0.9 | 4.66 | 4.31 | 0.767 | 1.4 | 1.37 | 0.658 | 4.94 | 0.993 | 0.578 | 0.477 | 0.386
23 | 0.549 | 0.886 | 0.766 | KWTVDYLSQVG [TYW5_Y48] | 0.443 | 0.373 | 0.887 | 0.63 | 1.05 | 0.466 | 0.462 | 0.494 | 0.605 | 0.953 | 0.635 | 0.602 | 0.391
24 | 2.66 | 1.61 | 2.38 | CTTVHYNFMCN [TP53_Y234_I232V_YF] | 0.499 | 0.384 | 0.622 | 0.673 | 0.901 | 0.499 | 0.445 | 0.52 | 0.472 | 0.769 | 0.687 | 0.458 | 0.598
25 | 0.841 | 0.811 | 0.657 | LGGAMYYLEAE [PKHD1_Y452] | 2.54 | 1.74 | 1.42 | 2.46 | 1.61 | 2.14 | 1.4 | 1.25 | 2.22 | 1.42 | 1.2 | 1.62 | 0.667
26 | 1.12 | 1.75 | 1.28 | VIVRMYDFHVL [RPF2_Y109_G106V_YF] | 0.555 | 1.87 | 0.901 | 0.597 | 1.01 | 0.473 | 0.488 | 1.55 | 0.462 | 1.08 | 0.885 | 1.33 | 4.04
27 | 0.466 | 0.924 | 0.538 | TEAGNYKLCFD [TMED1_Y103_D102N] | 0.505 | 0.453 | 1.17 | 0.749 | 1.05 | 0.424 | 0.549 | 0.577 | 0.627 | 1.12 | 0.785 | 0.53 | 0.492
28 | 0.446 | 0.743 | 0.626 | ISRVLYPNDNF [PYGM_Y281] | 0.759 | 0.37 | 0.675 | 0.472 | 0.748 | 0.477 | 0.395 | 0.524 | 0.448 | 0.649 | 0.602 | 0.438 | 0.422
29 | 0.973 | 0.871 | 0.829 | GVRLYYRVMES [RB1_Y454] | 0.438 | 0.419 | 1.02 | 0.711 | 1.26 | 0.333 | 0.437 | 0.574 | 0.535 | 1.03 | 0.731 | 0.587 | 0.538
30 | 0.547 | 0.823 | 0.864 | DGFTDYAEFAK [MCFD2_Y138_I136T_YF] | 0.974 | 0.542 | 1.34 | 0.752 | 1.31 | 1.11 | 0.954 | 0.741 | 0.654 | 1.24 | 0.811 | 0.88 | 0.477
31 | 0.405 | 0.577 | 0.8 | TDVSLYPSGGT [TENM4_Y399] | 0.353 | 0.435 | 0.578 | 0.428 | 0.552 | 0.269 | 0.409 | 0.512 | 0.355 | 0.676 | 0.585 | 0.331 | 0.535
32 | 0.424 | 0.622 | 0.451 | SASRSYSRSRS [SRRM4_Y549] | 0.518 | 0.589 | 0.58 | 0.497 | 0.594 | 0.588 | 0.503 | 0.521 | 0.426 | 0.635 | 0.659 | 0.466 | 0.505
33 | 0.535 | 0.93 | 0.815 | RIAFQYGVTDL [MYBPC3_Y340] | 0.522 | 0.514 | 1.47 | 1.08 | 1.28 | 0.879 | 0.647 | 0.627 | 0.45 | 1.41 | 0.992 | 0.709 | 0.558

— the supplement of paper PMC10065799, “High-throughput profiling of sequence recognition by tyrosine kinases and SH2 domains using bacterial peptide display” (eLife, 2023)
